# Test: soluble on expression in E. coli; label from the status in PepcDB or PDB records
row,Sequence,soluble on expression in E. coli
1,MGSDKIHHHHHHMKGQSKKALTKKRIEEAALSLFREQGYDSTTVQEITAKAQVAKGTFFNYFPTKESIMRSLAEDRLHSVSVYMEQRHIQSLPILKKIRTYLSYLLEEYDSHPKLTVQIWRHVVEFEEMILSHWVVLLEEAKERGELSEDFPIHVWSHIIHSHVCYGLQMSHLAPTKAQLLAKVMPLLEESLSAIIQKRGNSAMKKLVVLGGGYGGMRILQRLLPNDLPSDWEITLVDRLPYHCLKTEYYALAAGTASDHHLRVSFPEDPRLSTRYGSVSSIDLASKTVLFEEGEPLTYDTLIIGLGCEDKYHGVPGAKEHTYSIQSMEATRRTYEALNNVRPEGVVTIVGAGLSGVELASELRESRPDLTIKLLDRGDIILSMFPRRLSNYVQNWFIDHGVDIINKSNVTKVEEGAVYNHDERIESDAIIWTAGIQPNVVVRNLDVEKDQQGRVVLTPHHHLPTDEDVFVVGDCASLPHAPSAQLAEGQAEQIVTVLKKRWNNESLPDEFPRIKLKGVLGSLGKKHGFGLMGERTLIGRVPRVLKSGVLWMYKYHSG,not soluble
2,MERNMKNKNKMLDLMLEAVNNIKDAMPKMQIGAPVRQNIDAGERPCLQGYYTAAELKPVLDRPPQDSNAPGASGKAFKTTNLSVEEQKEKERGEAKHCFNAFASDRISLHRDLGPDTRPPEYVEEYLLFILYHQALQGREG,not soluble
3,MDNARIDLRSKYYVKPKADHPWLTRRTQSHQQVKPPKLPKKKPDPDKKD,not soluble
4,ASLIEDIDKKHLVLLRDGRTLIGFLRSIDQFANLVLHQTVERIHVGKKYGDIPRGIFVVRGENVVLLGEI,not soluble
5,THRAFNPKTLYIDASTSALKYSQGSTVYFRLPLDDIVRVQIQKESFSSQSLMIYTVNDSYQVPNSDNFDSLQLKYLMKKLEKRLDDQRR,not soluble
6,MSLKKTVSLCDITITQMLEEDSNQGHLIGDFSKVCALPTVSGKHQDLKYVNPETVAALLSGKFQGLIEKFYVIDCRYPYEYLGGHIQGALNLYSQEELFNFFLKKPIVPLDTQKRIIIVFHCEFSSERGPRMCRCLREEDRSLNQYPALYYPELYILKGGYRDFFPEYMELCEPQSYCPMHHQDHKTELLRCRSQSKVQEEGHHHHHH,soluble
7,MTNEEPLPKKVRLSETDFKVMARDELILRWKQYEAYVQALEGKYTDLNSNDVTGLRESEEKLKQQQQESARRENILVMRLATKEQEMQECTTQIQYLKQVQQPSVAQLRSTMVDPAINLFFLKMKGELEQTKDKLEQAQNELSAWKFTPDR,soluble
8,MSKETGKMAEEPPGSSSSAKPVTSSKKPPPNDVTTTTNTTKTTNSNQQEDMYLNGNNPYYGGFYANNRYLFPSTSSQATCIGTSSEDSPPPPPPSANGSIHRKHHQNANHHQNSRHAISDTVAVAGDDLSNVPAAVVIQLEKANRTIASQTLEIERLKSYQNQNLETHLLKKQIHDLEKEVRSGRSRFLEQQELLAEMSREMDILLREKLEMQRNSQELEKKYKKAKFASRELAKILENDLCGTPTTSNLKNFESDDEFFEEKSLFEKSRALSRQQIPNDLLEKTRKIDFSEAKNAKNQDLIDKLIDENENLQISLNREQKMTSSLQDDLEKSRRMVIDRDEHIEELKMKLGKAETKASQCESDLTQTSSDLAMERLRCEVLTGELHEIDGIFRNTQSTIQAYADDNDRLEDQCRQAQRTILTLNSKL,not soluble
9,MSLGIATFAVVDLETTGNQLDYDEIIQIGITFVRQNQVIDTYHSMIRTDLEIPPFIQALTSIEEEMLVQAPYFNEVADDIYQLIKDCVFVAHNISFDLNFIKKAFEKCNIQFKPKRVMDTLELFKIAFPTDKSYQLSALAESHHIPLNNAHRADEDATTTAKLMIKAFEKFEQLHEGHHHHHH,soluble
10,MGSDKIHHHHHHMDQARTTTVDHPDRETPFLLFAQHGWDDRSYPIQQMAQSIAPQYSQVYAPNLGRFRTWIAIEPLIQSVEAVVLEAIAQYPDRPLRFLGHSMGGLIWLEVLSRHREWWDRTHSLVLVGSPVSGSDVCRLLDPFGRLPSIAKDLGRNRRPLAEAIAAQIPTASIVSDLGDYSDGLVPVNSSEFERATLVTLKDISHARLKSHPQVADAIAQFWKQPSIAPRPRDRAGTLIAQLRSLNLTECNHRNFAKAAVLKSQPDGVKIWRWLNPLRVQHIFVSSPDPATGRDCCRYAAYTGWLDDAALSKFLEKL,not soluble
11,MSEETIEKFEDNVEHQNQDQPVPEGMSKKQLRRQKYKVKWEEKKLVKRAAERIRKKEKRAALKESGDLSKLRKRKDFRTMAQSNSKQRIALDMSFDDLMIEKDQKRTVQQIGWCYTANRHSPDPFQFHVVGFDGPSRKIYDGNEHNLNQDIHLHQEKLENLFKPEEIVYLTSESENVLSDLDDTKVYVIGGIVDHNSQKGLCYRIAQEKGFGHAKLPLDEHLLMKSRRVLTINQVYEILVHYSVHKNWKDALLSIIPERKNAQLKEEVVEEKPESLEEIGKLDTESTDTATGSPKIN,soluble
12,EHLPKLQPRPYSCASSSLFHPGKLHFVFNIVEFLSTATTEVLRKGVCTGWLALLVASVLQPNIHASHEDSGKALAPKISISPRTTNSFHLPDDPSIPIIMVGPGTGIAPFIGFLQHREKLQEQHPDGNFGAMWLFFGCRHKDRDYLFRKELRHFLKHGILTHLKVSFSRDAPVGEEEAPAKYVQDNIQLHGQQVARILLQENGHIYVCGDAKNMAKDVHDALVQIISKEVGVEKLEAMKTLATLKEEKRYLQDIWS,soluble
13,MGSDKIHHHHHHMIFKRKVYDKLIEWKTLAAGTSAVLLEGARRIGKSTIVEEFAKKEYDDYMILDFARENQDVKNNFVENMNDLDTFFRNLFLLKGKRLKGKNCVIIFDEVQLFPQARQAIKYLVADGRYEYIETGSLISIRKNVKDILIPSEEYRIKMYPMDFEEYLWAINDEVTIPTIRESFEKRKPLGDAIHRRIMKSFRTYMVVGGMPQAVDAYVSGKSYEQIDFVKRNILSLYEEDLAKYDTENREKASVIYRTIPEQLENKNSHFKLSMVDKNARYQNYMDAVSFISEAMIGNECINVTKPEVALELFADRSNFKLYMGDTGLLVTQIMKNRDSTDEDLYKALIIDNLGINQGMIVENIVAQMLRAAGHELYFHEYLYVPEGTTREKKYEIDFMIVKKKKICPIEVKSSNYMSHKSFDYLIQKYQLKCENRFIIYTKDLKYQDGIMYIPIYMTMLL,not soluble
14,MSGMILDELSWRGLIAQSTDLDTLAAEAQRGPMTVYAGFDPTAPSLHAGHLVPLLTLRRFQRAGHRPIVLAGGATGMIGDPRDVGERSLNEADTVAEWTERIRGQLERFVDFDDSPMGAIVENNLEWTGSLSAIEFLRDIGKHFSVNVMLARDTIRRRLAGEGISYTEFSYLLLQANDYVELHRRHGCTLQIGGADQWGNIIAGVRLVRQKLGATVHALTVPLVTAADGTKFGKSTGGGSLWLDPQMTSPYAWYQYFVNTADADVIRYLRWFTFLSADELAELEQATAQRPQQRAAQRRLASELTVLVHGEAATAAVEHASRALFGRGELARLDEATLAAALRETTVAELKPGSPDGIVDLLVASGLSASKGAARRTIHEGGVSVNNIRVDNEEWVPQSSDFLHGRWLVLRRGKRSIAGVERIGLEHHHHHH,soluble
15,MGSDKIHHHHHHMKVLVTGHRGYIGAVLTPMLHQRDHDVTGLDSDIFRSCTFEGTLDDTPTMEEDVRDIVIDDLAGFDAVIHLAGLSNDPLGDYRPNLTQQINCEASVTLARLAKRAGVPRFLFASSCSNYGAAGSGFLTESAAFNPVTPYGISKVEVEHAVAPMADECFSPTFLRASTAYGLSPRIRFDLVLNNLTAWAFTTGQIYLKSDGSPWRPIVHVEDIARAYIAALEADRELVHNQAFNVGLTTENYQVREIADIVQAIVPNSRIEFAADAGPDTRCYRVDCNYIGRRLHAFKPQWTARRGVEQLYEAFCSVGLSLEDFEGERFKRIAHVKKLIRNGELDEDLRRVSVPTMALAV,not soluble
16,MDRMYEQNQMPHNNEAEQSVLGSIIIDPELINTTQEVLLPESFYRGAHQHIFRAMMHLNEDNKEIDVVTLMDQLSTEGTLNEAGGPQYLAELSTNVPTTRNVQYYTDIVSKHALKRRLIQTADSIANDGYNDELELDAILSDAERRILELSSSRESDGFKDIRDVLGQVYETAEELDQNSGQTPGIPTGYRDLDQMTAGFNRNDLIILAARPSVGKTAFALNIAQKVATHEDMYTVGIFSLEMGADQLATRMICSSGNVDSNRLRTGTMTEEDWSRFTIAVGKLSRTKIFIDDTPGIRINDLRSKCRRLKQEHGLDMIVIDYLQLIQGSGSRASDNRQQEVSEISRTLKALARELECPVIALSQLSRGVEQRQDKRPMMSDIRESGSIEQDADIVAFLYRDDYYNRGGDEDDDDDGGFEPQTNDENGEIEIIIAKQRNGPTGTVKLHFMKQYNKFTDIDYAHADMM,not soluble
